Target: HLA-A*02:01 (Homo sapiens, UniProt P04439, D140Y/D185E/D98H/E176V/E277Q/G131W/G231S/I119V/I121R/I166T/I218V/L300P/L318F/N151K/N90K/P208A/P217A/Q86G/Q94H/R138H/R169H/T345S)
Assay: MHC binding assay (UV-ligand exchange, beta2m ELISA)
Conditions: binding to HLA-A*02:01, β2m ELISA
From the text: Candidate peptides for T cell based therapies according to the present invention were further tested for their MHC binding capacity (affinity). The individual peptide-MHC complexes were produced by UV-ligand exchange, where a UV-sensitive peptide is cleaved upon UV-irradiation, and exchanged with the peptide of interest as analyzed. Only peptide candidates that can effectively bind and stabilize the peptide-receptive MHC molecules prevent dissociation of the MHC complexes. To determine the yield of the exchange reaction, an ELISA was performed based on the detection of the light chain (β2m) of stabilized MHC complexes. The assay was performed as generally described in Rodenko et al. (Rodenko et al., 2006).
96 well MAXISorp plates (NUNC) were coated over night with 2 ug/ml streptavidin in PBS at room temperature, washed 4× and blocked for 1 h at 37° C. in 2% BSA containing blocking buffer. Refolded HLA-A*02:01/MLA-001 monomers served as standards, covering the range of 15-500 ng/ml. Peptide-MHC monomers of the UV-exchange reaction were diluted 100 fold in blocking buffer. Samples were incubated for 1 h at 37° C., washed four times, incubated with 2 ug/ml HRP conjugated anti-β2m for 1 h at 37° C., washed again and detected with TMB solution that is stopped with […]. Absorption was measured at 450 nm. Candidate peptides that show a high exchange yield (preferably higher than 50%, most preferred higher than 75%) are generally preferred for a generation and production of antibodies or fragments thereof, and/or T cell receptors or fragments thereof, as they show sufficient avidity to the MHC molecules and prevent dissociation of the MHC complexes.

Substance | Peptide exchange (MHC class I binding score, peptide exchange yield)
18 (KTASINQNV; listed as Homo sapiens) [compound 18] | ++ (≧20% = ++)
87 (KLLSLLEEA; listed as Homo sapiens) [compound 87] | +++ (≧50 = +++)
116 (ALLSSVAEA; listed as Homo sapiens) [compound 116] | ++ (≧20% = ++)
115 (ILHGEVNKV; listed as Homo sapiens) [compound 115] | ++ (≧20% = ++)
109 (ILGSFELQL; listed as Homo sapiens) [compound 109] | +++ (≧50 = +++)
139 (IILENIQSL; listed as Homo sapiens) [compound 139] | +++ (≧50 = +++)
24 (KVWSDVTPL; listed as Homo sapiens) [compound 24] | +++ (≧50 = +++)
30 (IITEVITRL; listed as Homo sapiens) [compound 30] | +++ (≧50 = +++)
61 (ALYPKEITL; listed as Homo sapiens) [compound 61] | +++ (≧50 = +++)
76 (FTAEFLEKV; listed as Homo sapiens) [compound 76] | +++ (≧50 = +++)
26 (VLDGKVAVV; listed as Homo sapiens) [compound 26] | +++ (≧50 = +++)
149 (NMADGQLHQV; listed as Homo sapiens) [compound 149] | ++ (≧20% = ++)
158 (YLDPLWHQL; listed as Homo sapiens) [compound 158] | +++ (≧50 = +++)
86 (SLFSNIESV; listed as Homo sapiens) [compound 86] | +++ (≧50 = +++)
19 (KVFELDLVTL; listed as Homo sapiens) [compound 19] | ++ (≧20% = ++)
124 (ALLLRLFTI; listed as Homo sapiens) [compound 124] | ++ (≧20% = ++)
31 (GLLETTGLLAT; listed as Homo sapiens) [compound 31] | +++ (≧50 = +++)
37 (QIVELIEKI; listed as Homo sapiens) [compound 37] | ++ (≧20% = ++)
161 (NLLDENVCL; listed as Homo sapiens) [compound 161] | ++++ (≧75% = ++++)

Substance | Peptide exchange (MHC class I binding score, peptide exchange yield)
94 (YLDEVAFML; listed as Homo sapiens) [compound 94] | +++ (≧50 = +++)
93 (RLYGYFHDA; listed as Homo sapiens) [compound 93] | ++ (≧20% = ++)
42 (KQMSISTGL; listed as Homo sapiens) [compound 42] | ++ (≧20% = ++)
122 (SIIDTELKV; listed as Homo sapiens) [compound 122] | +++ (≧50 = +++)
3 (RVIDDSLVVGV; listed as Homo sapiens) [compound 3] | +++ (≧50 = +++)
112 (ILAQDVAQL; listed as Homo sapiens) [compound 112] | +++ (≧50 = +++)
134 (SLYKSFLQL; listed as Homo sapiens) [compound 134] | ++ (≧20% = ++)
153 (KLVELEHTL; listed as Homo sapiens) [compound 153] | +++ (≧50 = +++)
154 (AIIKEIQTV; listed as Homo sapiens) [compound 154] | ++ (≧20% = ++)
60 (YLFSQGLQGL; listed as Homo sapiens) [compound 60] | +++ (≧50 = +++)
96 (ALDTTRHEL; listed as Homo sapiens) [compound 96] | ++ (≧20% = ++)
92 (RLFEEVLGV; listed as Homo sapiens) [compound 92] | ++++ (≧75% = ++++)
48 (KISDFGLATV; listed as Homo sapiens) [compound 48] | +++ (≧50 = +++)
33 (TLDRNSLYV; listed as Homo sapiens) [compound 33] | ++ (≧20% = ++)
132 (ALLNNVIEV; listed as Homo sapiens) [compound 132] | +++ (≧50 = +++)
83 (GLLENSPHL; listed as Homo sapiens) [compound 83] | ++ (≧20% = ++)
80 (VLTGQVHEL; listed as Homo sapiens) [compound 80] | +++ (≧50 = +++)
6 (FLNAIETAL; listed as Homo sapiens) [compound 6] | ++++ (≧75% = ++++)

Other lines, results leading:

Peptide exchange (MHC class I binding score, peptide exchange yield) | Substance
+++ (≧50 = +++) | 248 (VLMQDSRLYL; listed as Homo sapiens) [compound 248]
++ (≧20% = ++) | 215 (QIADIVTSV; listed as Homo sapiens) [compound 215]
+++ (≧50 = +++) | 204 (SEWGSPHAAVP; listed as Homo sapiens) [compound 204]
++ (≧20% = ++) | 281 (LLLESDPKVYSL; listed as Homo sapiens) [compound 281]
+++ (≧50 = +++) | 168 (VIFEGEPMYL; listed as Homo sapiens) [compound 168]
++ (≧20% = ++) | 252 (SLMEKNQSL; listed as Homo sapiens) [compound 252]
++ (≧20% = ++) | 243 (GLAEFQENV; listed as Homo sapiens) [compound 243]
++ (≧20% = ++) | 199 (SVADLAHVL; listed as Homo sapiens) [compound 199]
+++ (≧50 = +++) | 283 (ALSELLQQV; listed as Homo sapiens) [compound 283]
+++ (≧50 = +++) | 207 (KLFETVEEL; listed as Homo sapiens) [compound 207]
+++ (≧50 = +++) | 271 (VLIEYNFSI; listed as Homo sapiens) [compound 271]
++ (≧20% = ++) | 188 (VLGEEQEGV; listed as Homo sapiens) [compound 188]
++ (≧20% = ++) | 284 (KLMDPGSLPPL; listed as Homo sapiens) [compound 284]
+++ (≧50 = +++) | 182 (GLQDGFQITV; listed as Homo sapiens) [compound 182]
+++ (≧50 = +++) | 183 (ALSYILPYL; listed as Homo sapiens) [compound 183]
++ (≧20% = ++) | 216 (ALSTVTPRI; listed as Homo sapiens) [compound 216]
+++ (≧50 = +++) | 285 (MLLDTVQKV; listed as Homo sapiens) [compound 285]
++ (≧20% = ++) | 272 (FVMEGEPPKL; listed as Homo sapiens) [compound 272]
+++ (≧50 = +++) | 175 (SLLDLVQSL; listed as Homo sapiens) [compound 175]
++ (≧20% = ++) | 275 (AVPPPPSSV; listed as Homo sapiens) [compound 275]
++ (≧20% = ++) | 187 (SILKEDPFL; listed as Homo sapiens) [compound 187]
+++ (≧50 = +++) | 165 (SLLDYEVSI; listed as Homo sapiens) [compound 165]
+++ (≧50 = +++) | 179 (TLGEIIKGV; listed as Homo sapiens) [compound 179]
++ (≧20% = ++) | 208 (HLNNDRNPL; listed as Homo sapiens) [compound 208]
++ (≧20% = ++) | 194 (KLLEEVQLL; listed as Homo sapiens) [compound 194]

From patent US9802997B2, “Peptides and combination of peptides for use in immunotherapy against various tumors” (immatics biotechnologies GmbH, priority 2015, dated 2017)
